The test system of assay [1] is retinal superficial vasculature. Kind of assay: Retinal vascularization in hu-Ang-2 mice. The class given is in vivo. The conditions noted are these: 12.5 mg/kg subcutaneous at P2, retina at P5. The protocol: (§1) In one set of experiments wild-type mice were used. In another set, mice expressing a human Ang-2 in place of the wild-type mouse Ang-2 (designated “hu-Ang-2 mice”) were used. The mice at two days of age (P2) were injected subcutaneously with either control Fc or with selected anti-Ang-2 antibodies at a dose of 12.5 mg/kg. Three days later (at P5), pups were euthanized, and eyeballs were enucleated and fixed in 4% PFA for 30 minutes. Retinas were dissected, stained with Griffonia simplicifolia lectin-1 for 3 hours or overnight at 4° C. to visualize the vasculature, and flat-mounted on microscope slides. Images were taken using a Nikon Eclipse 80i microscope camera and analyzed using Adobe Photoshop CS3, Fovea 4.0, and Scion 1.63 software.
(§2) Areas of the retina covered with superficial vasculature were measured and used as a readout of antibody activity. The reduction in the size of the vascular areas in mice treated with antibody compared to Fc-treated controls is presented in Table 34. The percent reduction in vascular area reflects the anti-angiogenic potency of the antibody. (N/D=not determined)

For assay [2] the test system is unchanged. As to the kind of experiment: Retinal vascularization in wild-type mice. The class given is in vivo. The conditions noted are these: 12.5 mg/kg subcutaneous at P2, retina at P5. The protocol: as §1, §2
Assay [3] relates to PC3 (Human Prostate Cancer Cell Line) tumors. As to the kind of experiment: PC3 mouse tumor model. The conditions noted are these: PC3, 10 mg/kg intraperitoneal twice per week. The class given is in vivo, NCr nude mice. The protocol: Briefly, 5×10^6 PC3 cells in 100 μl of growth factor-reduced Matrigel (BD Biosciences) were injected subcutaneously into the flanks of 6-8 week old male NCr nude mice (Taconic, Hudson, N.Y.). After tumor volumes reached an average of about 200 mm^3, mice were randomized into groups for treatment. […] Tumor volumes were measured twice per week over the course of the experiment and tumor weights were measured upon excision of tumors at the conclusion of the experiment. Averages (mean+/−standard deviation) of tumor weight and growth were calculated for each treatment group. Percent decrease of tumor weight and growth were calculated from comparison to Fc protein measurements.

Assay [4] has as its system Tie-2 phosphorylation (Ang-2-mediated) in HUVECs. Kind of assay: Inhibition of Ang-2-mediated Tie-2 phosphorylation in FOXO1-adenovirus infected HUVECs. The conditions noted are these: antibody 0.5 μg/ml. The class given is cell-based, human. As to the method: Further, the inventors have shown that infection of HUVECs with an adenovirus encoding FOXO1 results in expression and secretion of Ang-2, followed by activation of Tie-2 phosphorylation (Daly et al. 2006 PNAS 103:15491).
Anti-Ang-2 antibodies were tested for their ability to inhibit Tie-2 phosphorylation. Briefly, 7×10^5 HUVECs (Vec Technologies, Rensselaer, N.Y.) were plated in 6 cm cell culture dishes in 3.5 ml of MCDB131 Complete medium (Vec Technologies, Rensselaer, N.Y.). The following day, the cells were washed with Opti-MEM (Invitrogen Corp., Carlsbad, Calif.) and fed with 2 ml of Opti-MEM. […] Cells were then washed with MCDB131 and fed with 2 ml of MCDB131 containing anti-Ang-2 antibodies at a concentration of 0.5 μg/ml. At twenty hours post infection, cells were lysed and subjected to Tie-2 immunoprecipitation as described by Daly et al., Proc. Natl. Acad. Sci. USA 103:15491-15496 (2006). Immunoglobulin was collected on protein A/G beads (Santa Cruz Biotechnology, Santa Cruz, Calif.) for one hour. Beads were washed with cold lysis buffer and resuspended in SDS sample buffer for analysis by western blot with antibodies specific for phosphotyrosine (Millipore, Billerica, Mass.) or Tie-2. Signals were detected using HRP-conjugated secondary antibodies and ECL reagents (GE Healthcare, Piscataway, N.J.). X-Ray films were scanned and the phospho-Tie-2 and Tie-2 signals were quantified using ImageJ software. The phospho-Tie-2/Tie-2 ratios were used to determine the % inhibition for each anti-Ang-2 antibody (i.e. Percent inhibition=Reduction in phospho-Tie-2/Tie-2 as compared to control).

For assay [5], the target named is T1, hAng-1-WT binding to hTie-2-mFc (Homo sapiens, UniProt Q15389).
T1 sequence (Q15389 20-498 limits assumed): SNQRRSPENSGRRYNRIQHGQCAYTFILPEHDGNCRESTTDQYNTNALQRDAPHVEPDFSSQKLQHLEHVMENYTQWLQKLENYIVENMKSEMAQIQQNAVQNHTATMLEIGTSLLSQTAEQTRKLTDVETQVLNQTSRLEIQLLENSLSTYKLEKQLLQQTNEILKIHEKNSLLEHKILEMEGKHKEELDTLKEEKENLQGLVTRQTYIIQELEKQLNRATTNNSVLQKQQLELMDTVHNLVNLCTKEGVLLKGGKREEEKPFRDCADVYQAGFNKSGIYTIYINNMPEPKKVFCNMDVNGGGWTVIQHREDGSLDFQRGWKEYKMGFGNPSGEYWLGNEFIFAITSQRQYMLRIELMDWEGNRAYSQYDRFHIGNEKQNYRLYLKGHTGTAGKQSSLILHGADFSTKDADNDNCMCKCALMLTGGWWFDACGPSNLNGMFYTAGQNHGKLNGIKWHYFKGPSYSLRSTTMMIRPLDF
Kind of assay: Biosensor SPR blocking of hAng-1-WT binding to hTie-2-mFc-ecto surface. It counts as biochemical. The conditions noted are these: 10 nM hAng-1-WT. As to the method:
In an effort to further assess the ability of selected anti-hAng-2 antibodies to block the binding of Ang-1 to Tie-2, a biosensor surface plasmon resonance experiment was conducted. In this experiment, a human Tie-2 full-length extracellular domain construct (hTie-2-mFc-ecto) was amine-coupled on a BIACORE™ chip to create a receptor coated surface. Selected anti-hAng-2 antibodies and control constructs, at 1 μM (100-fold excess over antigen), were premixed with 10 nM of hAng-1-WT, followed by 60 minutes incubation at 25° C. to allow antibody-antigen binding to reach equilibrium to form equilibrated solutions. The equilibrated solutions were injected over the receptor surfaces at 5 μL/min for 5 minutes at 25° C. Changes in resonance units (RU) due to the binding of the hAng-1-WT to hTie-2-mFc were determined. An irrelevant peptibody construct with no binding to hAng-1 was included in this experiment to establish the 0% blocking baseline, and a human Tie-2-mFc construct was used as a positive control for blocking. The amount of Ang-1 bound to Tie-2 following antibody preincubation, expressed as a percentage of the amount of Ang-1 bound to Tie-2 following negative control preincubation, is shown in Table 20. (A greater amount of Ang-1 binding to Tie-2 signifies a lower degree of antibody blocking).
(§3) The foregoing experiment was repeated using different amounts of Ang-2 blockers and controls. In particular, a human Tie-2 full-length extracellular domain construct (hTie-2-mFc-ecto) was amine-coupled on a BIACORE™ chip to create a receptor-coated surface. Selected anti-hAng-2 antibodies and control constructs (50 or 150 nM) were mixed with hAng-2-WT (25 nM) followed by 60 minutes incubation at 25° C. to allow antibody-antigen binding to reach equilibrium. The equilibrated solutions were injected over the receptor surfaces at 10 μL/min for 5 minutes at 25° C. To evaluate the ability of the selected anti-hAng-2 antibodies to block Ang-1-WT binding to hTie-2, a similar procedure was followed except the antibodies were tested at three concentrations (50, 100 or 1000 nM) and incubated with 10 nM of hAng-1-WT. Changes in resonance units (RU) due to the binding of the Ang-2-WT or hAng-1-WT to hTie-2-mFc were determined. An irrelevant antibody with no binding to either angiopoietin was included in these experiments to establish the 0% blocking baseline, and a human Tie-2-mFc construct was used as a positive control for blocking. Results are summarized in Tables 21 (hAng-1 applied to a hTie-2 surface) and 22 (hAng-2 applied to a hTie-2 surface).

Assay [6] has as its target T2, hAng-2-WT binding to hTie-2-mFc (Homo sapiens, UniProt O15123).
T2 sequence (O15123 19-496): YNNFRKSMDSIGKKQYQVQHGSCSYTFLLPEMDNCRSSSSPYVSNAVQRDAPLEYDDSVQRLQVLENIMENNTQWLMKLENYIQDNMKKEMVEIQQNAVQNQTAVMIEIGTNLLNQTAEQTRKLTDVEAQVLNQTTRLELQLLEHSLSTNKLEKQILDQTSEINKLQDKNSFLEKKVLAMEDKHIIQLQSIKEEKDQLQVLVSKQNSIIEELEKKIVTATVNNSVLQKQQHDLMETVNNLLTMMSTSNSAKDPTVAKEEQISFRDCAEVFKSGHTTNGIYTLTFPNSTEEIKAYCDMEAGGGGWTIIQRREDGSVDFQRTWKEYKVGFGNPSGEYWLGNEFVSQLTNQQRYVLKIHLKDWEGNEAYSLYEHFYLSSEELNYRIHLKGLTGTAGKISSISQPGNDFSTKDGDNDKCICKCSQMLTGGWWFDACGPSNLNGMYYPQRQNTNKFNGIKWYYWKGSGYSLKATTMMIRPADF
Kind of assay: Biosensor SPR blocking of hAng-2-WT binding to hTie-2-mFc-ecto surface. The class given is biochemical. The conditions noted are these: 25 nM hAng-2-WT. As to the method: as §3

B1: H1H724N: anti-Ang-2 antibody (724N) cloned onto human IgG1 (antibody, V domains shown)
VH: QVQLVESGGGVVQPGRSLRLSCAASGFTLSNYGMHWVRQAPGKGLEWVAVIWHDGSNTYYADSVKGRFTISRDNSKNTLYLQMNSLRAEDTAVYYCTREGLDFWSGYYPNWFDPWGQGTLVTVSS
VL: DIQMTQSPSSLSASVGDRVTITCRASQGIRNDLGWYQQKPGKAPKRLIYAASNLQGGVPSRFSGSGSGTEFTLTISSLQPEDFAAYYCLQHNIYPLTFGGGTKVEIK
In the case of B1, the “% Reduction in Vascular Area Relative to Fc Control, hAng-2 Mice” value in assay [1] is listed as 33.2%. The “% Reduction in Vascular Area Relative to Fc Control, Wild-Type Mice” value in assay [2] was determined as 32.2%. In assay [3] (approximately three weeks, mean ± SD), the “Avg Tumor Weight” value is 0.55 ± 0.07 g. For the same molecule, the “Avg Tumor Growth” value in assay [3] (mean ± SD) is 392 ± 169 mm^3. In addition, in assay [3] (vs Fc protein), the “% Decrease in Tumor Growth” value came to 23% and the “% Decrease in Tumor Weight” value was found to be 17%.

B2: H1H690P: anti-Ang-2 antibody, HCVR/LCVR SEQ ID NOs 42/44 (antibody, V domains shown)
VH: EVQLVESGGGLVQPGESLRLSCAASGFTFSSYAMSWVRQGPGKGLEWVSSITGSGDTTYYADSVKGRFTISRDNSKNTLYLHMNSLRAEDTAVYYCAKDFLDYSTYLAFDLWGQGTMVTVSS
VL: EIVLTQSPATLSLSPGERATLSCRASQSVSSYLTWYQQKPGQAPRLLSYDASNRATGIPARFSGSGSGTDFTLTISSLEPEDFAVYYCQQRSNWPLTFGGGTKVEIK
Turning to B2, the “% Reduction in Vascular Area Relative to Fc Control, hAng-2 Mice” value in assay [1] stood at 41.5%. Moreover, in assay [4], the “Inhibition of Tie-2 phosphorylation” value is listed as “+++ (75-100%)” and the “Inhibition of Tie-2 phosphorylation (in words)” value is “Especially robust inhibition”. Also, the “% Reduction in Vascular Area Relative to Fc Control, Wild-Type Mice” value in assay [2] came out at 30.7%.

B3: hTie-2-mFc: chimeric construct consisting of human Tie-2 conjugated to mouse IgG; positive control for blocking (protein)
chain: MDSLASLVLCGVSLLLSGTVEGAMDLILINSLPLVSDAETSLTCIASGWRPHEPITIGRDFEALMNQHQDPLEVTQDVTREWAKKVVWKREKASKINGAYFCEGRVRGEAIRIRTMKMRQQASFLPATLTMTVDKGDNVNISFKKVLIKEEDAVIYKNGSFIHSVPRHEVPDILEVHLPHAQPQDAGVYSARYIGGNLFTSAFTRLIVRRCEAQKWGPECNHLCTACMNNGVCHEDTGECICPPGFMGRTCEKACELHTFGRTCKERCSGQEGCKSYVFCLPDPYGCSCATGWKGLQCNEACHPGFYGPDCKLRCSCNNGEMCDRFQGCLCSPGWQGLQCEREGIPRMTPKIVDLPDHIEVNSGKFNPICKASGWPLPTNEEMTLVKPDGTVLHPKDFNHTDHFSVAIFTIHRILPPDSGVWVCSVNTVAGMVEKPFNISVKVLPKPLNAPNVIDTGHNFAVINISSEPYFGDGPIKSKKLLYKPVNHYEAWQHIQVTNEIVTLNYLEPRTEYELCVQLVRRGEGGEGHPGPVRRFTTASIGLPPPRGLNLLPKSQTTLNLTWQPIFPSSEDDFYVEVERRSVQKSDQQNIKVPGNLTSVLLNNLHPREQYVVRARVNTKAQGEWSEDLTAWTLSDILPPQPENIKISNITHSSAVISWTILDGYSISSITIRYKVQGKNEDQHVDVKIKNATIIQYQLKGLEPETAYQVDIFAENNIGSSNPAFSHELVTLPESQAPADLGGGKGPGEPRGPTIKPCPPCKCPAPNLLGGPSVFIFPPKIKDVLMISLSPIVTCVVVDVSEDDPDVQISWFVNNVEVHTAQTQTHREDYNSTLRVVSALPIQHQDWMSGKEFKCKVNNKDLPAPIERTISKPKGSVRAPQVYVLPPPEEEMTKKQVTLTCMVTDFMPEDIYVEWTNNGKTELNYKNTEPVLDSDGSYFMYSKLRVEKKNWVERNSYSCSVVHEGLHNHHTTKSFSRTPGK
For the molecule B3, the results for the “Percent of Neg. Ctrl Binding (hAng-1 WT)” value in assay [5] (50 nM antibody or control), in assay [5] (100 nM antibody or control) and in assay [5] (1000 nM antibody or control) were 22%, 13% and 0%, respectively. The figures for the “Specific Bound RU (hAng-1 WT)” value in assay [5] (50 nM antibody or control), in assay [5] (100 nM antibody or control) and in assay [5] (1000 nM antibody or control) were 70 RU, 39 RU and −47 RU, respectively. Further, the “Percent of Neg. Ctrl Binding (hAng-2 WT)” value in assay [6] (50 nM antibody or control) came to 35%; in assay [6] (150 nM antibody or control) it was 30%. Further, the “Specific Bound RU (hAng-2 WT)” value came out at 97 RU in assay [6] (50 nM antibody or control) and 82 RU in assay [6] (150 nM antibody or control).

For the origin of these results see patent US9926369B2, “Methods for treating hepatocellular cancer by administering an anti-Ang-2 antibody” (Regeneron Pharmaceuticals, Inc., priority 2009, dated 2018).
